Results reported in publication PMC5344537.
Where “and” joins values, the source holds several entries; their conditions need not be identical. Equal entries are not always repeated.

What was measured:
[1] = target: intercellular adhesion molecule-1 (ICAM-1) of epithelial cells (human (endogenous in primary tonsil, cervical and foreskin keratinocytes)) (UniProt P05362)
[2] = target: intercellular adhesion molecule-1 (ICAM-1) of epithelial cells (human (endogenous in primary tonsil, cervical and foreskin keratinocytes)) (UniProt P05362); remark: listed apart in the source

UniProt P05362, sequence (P05362 28-532): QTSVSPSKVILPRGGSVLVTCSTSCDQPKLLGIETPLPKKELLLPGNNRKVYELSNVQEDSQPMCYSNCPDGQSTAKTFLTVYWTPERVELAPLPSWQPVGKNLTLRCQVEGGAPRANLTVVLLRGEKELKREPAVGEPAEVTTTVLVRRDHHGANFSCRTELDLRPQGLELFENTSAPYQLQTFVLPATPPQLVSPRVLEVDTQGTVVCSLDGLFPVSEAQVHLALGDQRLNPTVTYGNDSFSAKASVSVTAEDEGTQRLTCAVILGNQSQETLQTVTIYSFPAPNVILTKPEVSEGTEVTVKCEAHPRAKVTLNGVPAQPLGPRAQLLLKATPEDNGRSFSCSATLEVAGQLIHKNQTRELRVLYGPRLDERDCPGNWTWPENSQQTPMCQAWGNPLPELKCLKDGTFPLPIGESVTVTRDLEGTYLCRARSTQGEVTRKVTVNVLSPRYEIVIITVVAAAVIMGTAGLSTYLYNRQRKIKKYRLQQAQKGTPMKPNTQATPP

Substance: lymphocyte receptor function-associated antigen-1 (LFA-1) (from UniProt P20701 26-1170; P05107 23-769) (complex)
- reduction of HIV-1 SF33 spread from AP and BL surfaces of polarized tonsil epithelial cells to activated PBMC, in the presence of antibodies against ICAM-1 and LFA-1 (ELISA p24 of PBMC after 7 days) [1]: 65 to 70%
- reduction of HIV-1 SF33 spread from AP and BL membranes of polarized cervical and foreskin epithelial cells to activated PBMC, in the presence of antibodies to LFA-1 and ICAM-1 (ELISA p24) [2]: 40% and 50%
- reduction of spread of R5-tropic HIV-1 SF170 from polarized cervical and foreskin epithelial cells to CD4+ T lymphocytes, in the presence of antibodies to LFA-1 and ICAM-1 (ELISA p24) [2]: 70%
- reduction of spread of X4-tropic HIV-1 92UG029 from polarized cervical and foreskin epithelial cells to CD4+ T lymphocytes, in the presence of antibodies to LFA-1 and ICAM-1 (ELISA p24) [2]: 50%
